# Laboratory results published in the Human Domainome abundance scans (Beltran et al. 2025).
# ± gives the uncertainty stated by the source.
# B1: Gamma-crystallin D, residues 90 to 170; numbered along this chain, P07320 (parent)
# chain: IRLYEREDYRGQMIEFTEDCSCLQDRFRFNEIHSLNVLEGSWVLYELSNYRGRQYLLMPGDYRRYQDWGATNARVGSLRRV
# Variants of: B1
# Test: abundance fitness (aPCA) (normalised: wild type 0, dead -1); higher = more abundant; growth selection in yeast, the domain comes from the species named
# Conditions: Homo sapiens
row,Variant,abundance fitness
1,R10V,-0.005 ± 0.069
2,R10L,-0.064 ± 0.096
3,R10N,0.077 ± 0.24
4,R10A,-0.093 ± 0.057
5,R10C,0.046 ± 0.12
6,R10Q,-0.069 ± 0.14
7,R10E,0.059 ± 0.14
8,R10D,-0.118 ± 0.14
9,R10G,-0.004 ± 0.064
10,R10M,-0.026 ± 0.12
11,R10T,-0.034 ± 0.1
12,R10I,0.074 ± 0.21
13,R10K,0.226 ± 0.13
14,R10S,-0.138 ± 0.077
15,R10F,0.025 ± 0.098
16,R10P,-1.07 ± 0.19
17,R10Y,-0.087 ± 0.18
18,R10W,-0.027 ± 0.1
19,M13H,0.001 ± 0.17
20,M13T,-0.122 ± 0.094
21,M13L,0.002 ± 0.081
22,M13F,0.009 ± 0.17
23,M13N,-0.042 ± 0.18
24,M13E,-0.056 ± 0.16

row,Variant,abundance fitness
1,M13Y,-0.524 ± 0.27
2,M13W,-0.127 ± 0.099
3,M13C,-0.176 ± 0.13
4,M13G,0.017 ± 0.051
5,M13R,-0.075 ± 0.073
6,M13Q,-0.115 ± 0.12
7,M13V,0.04 ± 0.08
8,M13D,0.034 ± 0.14
9,M13A,0.08 ± 0.1
10,M13S,0.061 ± 0.14
11,M13I,-0.021 ± 0.15
12,F16L,0.08 ± 0.078
13,F16W,0.143 ± 0.09
14,F16T,-0.089 ± 0.12
15,F16N,0.095 ± 0.18
16,F16Y,-0.606 ± 0.42
17,F16D,-0.163 ± 0.11
18,F16P,0.109 ± 0.09
19,F16I,-0.077 ± 0.26
20,F16R,0.082 ± 0.063
21,F16V,0.034 ± 0.071
22,F16H,0.052 ± 0.31
23,F16A,-0.1 ± 0.081
24,F16K,-0.118 ± 0.1

row,Variant,abundance fitness
1,F16S,0.035 ± 0.068
2,F16C,-0.029 ± 0.12
3,F16M,-0.115 ± 0.15
4,F16E,-0.018 ± 0.095
5,F16Q,0.033 ± 0.13
6,F16G,0.035 ± 0.052
7,Y9K,0.001 ± 0.19
8,Y9G,0.06 ± 0.053
9,Y9E,0.082 ± 0.073
10,Y9N,0.217 ± 0.14
11,Y9T,0.179 ± 0.12
12,Y9Q,0.07 ± 0.11
13,Y9I,0.112 ± 0.2
14,Y9P,-0.529 ± 0.12
15,Y9F,0.104 ± 0.19
16,Y9W,0.036 ± 0.066
17,Y9V,-0.396 ± 0.073
18,Y9C,0.194 ± 0.13
19,Y9M,0.064 ± 0.18
20,Y9H,0.19 ± 0.36
21,Y9R,0.204 ± 0.058
22,Y9S,0.175 ± 0.078
23,Y9D,-0.076 ± 0.14
24,T17M,-0.172 ± 0.16

row,Variant,abundance fitness
1,T17C,0.007 ± 0.14
2,T17P,0.152 ± 0.082
3,T17I,0.073 ± 0.11
4,T17Q,-0.11 ± 0.11
5,T17F,0.08 ± 0.14
6,T17D,-0.012 ± 0.14
7,T17N,-0.001 ± 0.25
8,T17R,0.074 ± 0.064
9,T17E,-0.089 ± 0.095
10,T17L,0.001 ± 0.069
11,T17K,-0.061 ± 0.13
12,T17G,0.016 ± 0.064
13,T17A,-0.177 ± 0.071
14,D8M,-0.006 ± 0.13
15,D8L,0.025 ± 0.092
16,D8R,0.025 ± 0.072
17,D8P,0.026 ± 0.12
18,D8H,-0.086 ± 0.17
19,D8E,0.015 ± 0.12
20,D8F,0.085 ± 0.2
21,D8K,0.111 ± 0.14
22,D8G,-0.004 ± 0.074
23,D8I,-0.152 ± 0.23
24,D8C,0.05 ± 0.13

row,Variant,abundance fitness
1,D8S,-0.03 ± 0.075
2,D8T,-0.016 ± 0.096
3,D8W,-0.153 ± 0.098
4,D8Q,0.097 ± 0.16
5,D8V,-0.049 ± 0.09
6,D8N,-0.342 ± 0.18
7,D8A,-0.079 ± 0.095
8,G11S,-0.1 ± 0.083
9,G11A,0.035 ± 0.073
10,G11N,-0.094 ± 0.16
11,G11W,-1.01 ± 0.18
12,G11P,-0.521 ± 0.12
13,E15N,0.206 ± 0.29
14,E15G,-0.08 ± 0.061
15,E15A,-0.065 ± 0.11
16,E15T,-0.027 ± 0.13
17,E15M,-0.013 ± 0.092
18,E15K,0.204 ± 0.17
19,E15V,-0.118 ± 0.076
20,E15L,-0.032 ± 0.075
21,E15S,-0.11 ± 0.086
22,E15P,0.038 ± 0.11
23,E15W,-0.093 ± 0.074
24,E15R,-0.084 ± 0.059

row,Variant,abundance fitness
1,E15C,0.008 ± 0.18
2,E15F,0.015 ± 0.19
3,E15I,-0.034 ± 0.23
4,E15Y,-0.135 ± 0.2
5,E15D,-0.166 ± 0.14
6,I14V,-0.001 ± 0.09
7,I14W,-0.09 ± 0.11
8,I14D,0.08 ± 0.18
9,I14Y,-0.018 ± 0.16
10,I14A,-0.401 ± 0.045
11,I14T,-0.018 ± 0.11
12,I14C,-0.004 ± 0.1
13,I14L,-0.106 ± 0.087
14,I14P,-0.825 ± 0.18
15,I14N,0.056 ± 0.21
16,I14G,-0.092 ± 0.069
17,I14K,-0.092 ± 0.13
18,I14S,0.107 ± 0.1
19,I14M,0.086 ± 0.12
20,I14F,0.019 ± 0.26
21,Q12A,-0.055 ± 0.076
22,Q12P,0 ± 0.073
23,Q12V,0.1 ± 0.089
24,Q12F,-0.192 ± 0.17

row,Variant,abundance fitness
1,Q12D,-0.019 ± 0.14
2,Q12T,-0.041 ± 0.096
3,Q12K,0.052 ± 0.23
4,Q12E,-0.105 ± 0.11
5,Q12I,-0.061 ± 0.17
6,Q12G,0.04 ± 0.066
7,Q12S,-0.008 ± 0.079
8,Q12W,-0.176 ± 0.12
9,Q12M,0.062 ± 0.14
10,Q12H,0.021 ± 0.16
11,Q12Y,0.007 ± 0.19
12,Q12C,-0.352 ± 0.24
13,Q12L,-0.173 ± 0.075
14,Q12N,0.102 ± 0.19
15,E7L,-0.031 ± 0.12
16,E7M,-0.029 ± 0.17
17,E7Q,-0.016 ± 0.13
18,E7S,0.069 ± 0.14
19,E7K,0.103 ± 0.22
20,E7V,-0.04 ± 0.1
21,E7R,-0.043 ± 0.065
22,E7W,0.045 ± 0.097
23,E7Y,-0.498 ± 0.43
